T1: zebrafish DraxinB, AVEXIS protein (zebrafish)
T1 chain: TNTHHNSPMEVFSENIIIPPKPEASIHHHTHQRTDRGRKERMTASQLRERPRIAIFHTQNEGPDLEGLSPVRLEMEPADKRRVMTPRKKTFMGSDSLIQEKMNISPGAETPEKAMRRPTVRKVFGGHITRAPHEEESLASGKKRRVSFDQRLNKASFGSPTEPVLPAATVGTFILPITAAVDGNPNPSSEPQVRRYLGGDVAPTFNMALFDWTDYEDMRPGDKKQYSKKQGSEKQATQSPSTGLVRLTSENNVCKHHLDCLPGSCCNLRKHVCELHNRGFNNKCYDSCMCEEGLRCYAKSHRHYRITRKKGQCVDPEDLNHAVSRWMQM

T2: human Netrin-G2, AVEXIS protein (human, UniProt Q96CW9 18-507)
T2 construct: not shown: AVEXIS tag (bait or prey)
T2 sequence (looked up): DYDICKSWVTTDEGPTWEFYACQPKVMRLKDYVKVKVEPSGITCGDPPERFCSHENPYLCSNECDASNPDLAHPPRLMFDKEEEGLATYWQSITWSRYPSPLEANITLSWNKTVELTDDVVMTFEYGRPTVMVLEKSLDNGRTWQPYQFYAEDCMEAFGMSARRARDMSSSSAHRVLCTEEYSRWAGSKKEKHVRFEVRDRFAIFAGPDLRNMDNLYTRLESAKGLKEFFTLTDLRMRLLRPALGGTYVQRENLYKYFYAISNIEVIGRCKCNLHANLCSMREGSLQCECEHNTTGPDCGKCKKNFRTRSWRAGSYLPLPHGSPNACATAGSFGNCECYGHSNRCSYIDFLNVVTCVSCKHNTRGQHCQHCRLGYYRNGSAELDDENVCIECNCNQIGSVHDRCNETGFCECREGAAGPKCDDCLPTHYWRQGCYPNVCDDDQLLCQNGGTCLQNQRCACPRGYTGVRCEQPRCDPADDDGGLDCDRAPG

T3: human Netrin-4, AVEXIS protein (human, UniProt Q9HB63 19-628)
T3 construct: not shown: AVEXIS tag (bait or prey)
T3 sequence (looked up): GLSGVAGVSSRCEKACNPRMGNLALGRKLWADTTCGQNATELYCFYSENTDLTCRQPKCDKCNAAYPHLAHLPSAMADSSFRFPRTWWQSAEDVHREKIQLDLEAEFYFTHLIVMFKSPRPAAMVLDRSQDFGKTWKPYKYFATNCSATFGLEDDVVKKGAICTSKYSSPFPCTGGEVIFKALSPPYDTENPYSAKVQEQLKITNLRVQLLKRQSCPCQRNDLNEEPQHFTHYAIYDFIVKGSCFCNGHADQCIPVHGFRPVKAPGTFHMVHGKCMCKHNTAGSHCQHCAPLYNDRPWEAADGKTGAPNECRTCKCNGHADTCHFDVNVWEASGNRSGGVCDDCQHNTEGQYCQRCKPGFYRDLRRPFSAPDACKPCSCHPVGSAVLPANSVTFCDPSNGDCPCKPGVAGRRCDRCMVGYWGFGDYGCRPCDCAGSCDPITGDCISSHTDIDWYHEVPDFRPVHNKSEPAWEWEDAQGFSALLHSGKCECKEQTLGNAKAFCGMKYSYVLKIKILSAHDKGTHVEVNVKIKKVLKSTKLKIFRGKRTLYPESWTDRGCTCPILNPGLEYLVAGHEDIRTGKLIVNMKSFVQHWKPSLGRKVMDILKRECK

T4: human DRAXIN 21 amino acid Netrin binding fragment, AVEXIS prey or bait protein (human)
T4 construct: Tested in both bait and prey orientations; also called human 21 amino acid DRAXIN fragment; derived 21 amino acid peptide; not shown: AVEXIS tag (rat Cd4d3+4 and prey or bait module)
T4 peptide: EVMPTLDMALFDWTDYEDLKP

T5: human Netrin-G1, AVEXIS protein (human, UniProt Q9Y2I2 29-510)
T5 construct: not shown: AVEXIS tag (bait or prey)
T5 sequence (looked up): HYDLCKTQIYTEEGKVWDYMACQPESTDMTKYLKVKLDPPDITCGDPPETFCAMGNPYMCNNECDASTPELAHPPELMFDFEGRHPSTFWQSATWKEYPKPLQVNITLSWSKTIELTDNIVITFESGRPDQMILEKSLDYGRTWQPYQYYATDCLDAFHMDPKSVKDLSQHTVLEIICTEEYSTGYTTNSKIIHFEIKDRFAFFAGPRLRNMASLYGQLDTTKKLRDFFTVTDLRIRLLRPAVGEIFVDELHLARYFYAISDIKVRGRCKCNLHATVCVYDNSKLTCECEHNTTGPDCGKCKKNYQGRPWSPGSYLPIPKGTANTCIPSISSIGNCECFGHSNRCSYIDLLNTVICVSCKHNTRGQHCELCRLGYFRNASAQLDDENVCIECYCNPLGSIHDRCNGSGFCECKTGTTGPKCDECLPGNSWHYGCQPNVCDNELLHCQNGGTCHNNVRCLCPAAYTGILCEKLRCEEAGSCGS

B1: zebrafish DraxinA, AVEXIS prey or bait protein (ligand)
chain: SEISSDNFKQSLTPSTTTSKEHPETGLTGGRQQKRHWSGKERDSAGLFSQRHMDRLEDDGTSMEGLSPVRLEMGPGDTMKAEVHGEVRASAQMRQGSHPAEGELNRKGRRHSHRLLAEHRKHGGKKDKGRGKGDLSDPEPELDSLLKDLNAFEDGLNTSPPNYNSVPLNEVPSPLSPILVTTAIKGHPPTLPPASTKPQKSSQGRTQGEVMPTLDMTLFDWTDYEDMKPADSWPSNKRKDKRRSKNKSNGNTTTEAGIVEPCDHHLDCLSGSCCDLREFECKPHNRGLNNKCFDDCMCEEGLRCYAKFHRKRRVTRRRGRCVDPESVNSNQGAFITV
notes: Prey and bait forms of the same protein are kept as one molecule; Preys are pentameric except in the monomeric-prey experiments; also called DraxinA prey protein
B2: human DRAXIN, AVEXIS prey or bait protein (ligand)
chain: GALAPGTPARNLPENHIDLPGPALWTPQASHHRRRGPGKKEWGPGLPSQAQDGAVVTATRQASRLPEAEGLLPEQSPAGLLQDKDLLLGLALPYPEKENRPPGWERTRKRSREHKRRRDRLRLHQGRALVRGPSSLMKKAELSEAQVLDAAMEESSTSLAPTMFFLTTFEAAPATEESLILPVTSLRPQQAQPRSDGEVMPTLDMALFDWTDYEDLKPDGWPSAKKKEKHRGKLSSDGNETSPAEGEPCDHHQDCLPGTCCDLREHLCTPHNRGLNNKCFDDCMCVEGLRCYAKFHRNRRVTRRKGRCVEPETANGDQGSFINV
notes: It was tested in both bait and prey orientations

Assays:
[1] = biological target: T1, zebrafish DraxinB, AVEXIS protein; experiment: AVEXIS, prey on bait zDraxinB, lower value; white = No binding
[2] = biological target: T1, zebrafish DraxinB, AVEXIS protein; experiment: AVEXIS, pentameric prey zebrafish DraxinA on bait zDraxinB
[3] = biological target: B2; experiment: AVEXIS, pentameric prey human DRAXIN on bait zDraxinA
[4] = biological target: the molecule itself; experiment: AVEXIS, pentameric prey zebrafish DraxinA on bait zDraxinA
[5] = biological target: T1, zebrafish DraxinB, AVEXIS protein; experiment: AVEXIS, prey on bait zDraxinB, upper value; white = No binding
[6] = biological target: the molecule itself; experiment: AVEXIS, prey on bait zDraxinA, lower value; white = No binding
[7] = biological target: the molecule itself; experiment: AVEXIS, prey on bait zDraxinA, upper value; white = No binding
[8] = biological target: T6, Matn4 ECD, mono-biotinylated bait protein (positive control); experiment: AVEXIS, prey on bait Matn4 (+), positive control for the prey; dark = Binding
T6 construct: extracellular domain; also called Matn4-bait
Description: (§1) The Matn4-bait served as an internal prey-protein control and was used for normalization of the A486 nm values; conditioned medium (CM) serves as negative control; n=3.

[9] = biological target: T2, human Netrin-G2, AVEXIS protein; experiment: AVEXIS, prey on bait NTNG2; white = No binding
Description: as §1

[10] = biological target: T3, human Netrin-4, AVEXIS protein; experiment: AVEXIS, prey NTN4 on bait DRAXIN
Description: as §1

[11] = biological target: T3, human Netrin-4, AVEXIS protein; experiment: AVEXIS, prey on bait NTN4; white = No binding
Description: as §1

[12] = biological target: T7, biotinylated recombinant human UNC5B (human, UniProt Q8IZJ1 27-377); experiment: AVEXIS, prey DRAXIN on bait UNC5B
T7 construct: Made in HEK293-6E and immobilised on an SA chip
Description: as §1

[13] = biological target: T2, human Netrin-G2, AVEXIS protein; experiment: AVEXIS, prey NTNG2 on bait DRAXIN
Description: as §1

[14] = biological target: T7, biotinylated recombinant human UNC5B; experiment: AVEXIS, prey on bait UNC5B; white = No binding
Description: as §1

[15] = biological target: B1; experiment: AVEXIS, prey on bait zDraxinA, lower value; white = No binding
[16] = biological target: T4, human DRAXIN 21 amino acid Netrin …; experiment: AVEXIS, prey on bait DRAXIN 21aa; white = No binding
Description: as §1

[17] = biological target: T5, human Netrin-G1, AVEXIS protein; experiment: AVEXIS, prey NTNG1 on bait DRAXIN
Description: as §1

[18] = biological target: T8, human Netrin1, recombinant AVEXIS protein (biotinylated when immobilised) (human, UniProt O95631 25-604); experiment: AVEXIS, prey on bait NTN1; dark = Binding
T8 construct: also called NTN1
Description: as §1

[19] = biological target: T5, human Netrin-G1, AVEXIS protein; experiment: AVEXIS, prey on bait NTNG1; white = No binding
Description: as §1

[20] = biological target: B1; experiment: AVEXIS, prey on bait zDraxinA, upper value; white = No binding

A486nm [1] | binding result [2] | binding result [3] | A486nm [5] | A486nm [8] | A486nm [9] | binding result [10] | A486nm [11] | binding result [12] | binding result [13] | A486nm [14] | A486nm [15] | A486nm [16] | binding result [17] | A486nm [18] | A486nm [19] | A486nm [20] | Binder | binding result [4] | A486nm [6] | A486nm [7]
0.059 | no binding | no binding | 0.057 |  |  |  |  |  |  |  |  |  |  |  |  |  | B1 | no binding | 0.06 | 0.062
0.058 |  |  | 0.056 | 0.213 | 0.072 | no binding | 0.076 | no binding | no binding | 0.078 | 0.06 | 0.063 | no binding | 0.361 | 0.077 | 0.06 | B2 |  |  | 
